According to paper PMC2064341 (The Journal of Cell Biology, 2006):

Molecular target: T1, 6-His-tagged RLIP76ΔRBD (human, UniProt Q15311 1-392)
T1 sequence: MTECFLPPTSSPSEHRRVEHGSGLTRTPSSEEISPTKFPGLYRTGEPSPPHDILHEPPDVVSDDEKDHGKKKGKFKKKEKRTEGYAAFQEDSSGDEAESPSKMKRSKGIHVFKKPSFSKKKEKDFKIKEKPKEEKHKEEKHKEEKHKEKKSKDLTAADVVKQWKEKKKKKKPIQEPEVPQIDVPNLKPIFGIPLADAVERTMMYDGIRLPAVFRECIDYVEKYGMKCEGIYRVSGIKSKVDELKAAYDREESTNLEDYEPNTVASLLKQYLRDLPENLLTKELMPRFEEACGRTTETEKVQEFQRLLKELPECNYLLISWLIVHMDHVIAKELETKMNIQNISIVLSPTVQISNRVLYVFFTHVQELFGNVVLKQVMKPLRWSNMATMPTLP
Assay: pull-down

B1: GST–R-Ras(wt) (natural protein, human, UniProt P10301 1-218, looked up)
chain: MSSGAASGTGRGRPRGGGPGPGDPPPSETHKLVVVGGGGVGKSALTIQFIQSYFVSDYDPTIEDSYTKICSVDGIPARLDILDTAGQEEFGAMREQYMRAGHGFLLVFAINDRQSFNEVGKLFTQILRVKDRDDFPVVLVGNKADLESQRQVPRSEASAFGASHHVAYFEASAKLRLNVDEAFEQLVRAVRKYQEQELPPSPPSAPRKKGGGCPCVLL
- binding result: binds
